Laboratory results from PMC5667986.

Target: low-density lipoprotein receptor-related protein-1 (LRP-1), endogenous, human cells (human (endogenous in FTC-133))

β1-integrin, endogenous, human cells (from UniProt P05556 21-798) (receptor)
biotin-based internalisation of cell surface β1-integrin in FTC-133 cells (10 min at 37°C), decrease with 500 nM RAP against untreated cells: 2 fold
percentage of Rab5a early endosomes positive for β1-integrin in FTC-133 cells (confocal), reduction with 500 nM RAP against control cells: 25%
